According to PMC8894135:

How the values were obtained:
Test in all cases: cryo-EM structure; single particle analysis of extended AlgoCIS particles assembled in A. machipongonensis and purified whole, in buffer B (20 mM Tris pH 7.5, 150 mM NaCl); cap 2.5 Å, extended sheath-tube 2.4 Å, baseplate 2.7-2.9 Å, whole particle 4.4 Å
[1] = molecular target: Alg16A (cap protein of AlgoCIS) (Algoriphagus machipongonensis PR1 (endogenous in A. machipongonensis))
[2] = molecular target: Alg11 (baseplate wedge protein of AlgoCIS, forms the spike cage) (Algoriphagus machipongonensis PR1 (endogenous in A. machipongonensis))
[3] = molecular target: Alg6 (plug protein of AlgoCIS) (Algoriphagus machipongonensis PR1 (endogenous in A. machipongonensis))
[4] = molecular target: Alg16B (cap adaptor protein of AlgoCIS) (Algoriphagus machipongonensis PR1 (endogenous in A. machipongonensis))
[5] = molecular target: Alg1 (inner tube protein of AlgoCIS) (Algoriphagus machipongonensis PR1 (endogenous in A. machipongonensis))
[6] = molecular target: Alg8 (central spike protein of AlgoCIS) (Algoriphagus machipongonensis PR1 (endogenous in A. machipongonensis))

## Alg16A (cap protein of AlgoCIS) (natural protein)
[1]
  stoichiometry N: 6

## Alg11 (baseplate wedge protein of AlgoCIS, forms the spike cage) (natural protein)
[2]
  stoichiometry N: 6

## Alg6 (plug protein of AlgoCIS) (natural protein)
[3]
  stoichiometry N: 3

## Alg16B (cap adaptor protein of AlgoCIS) (natural protein)
[4]
  stoichiometry N: 6

## Alg1 (inner tube protein of AlgoCIS) (natural protein)
[5]
  stoichiometry N: 6

## Alg8 (central spike protein of AlgoCIS) (natural protein)
[6]
  stoichiometry N: 3
